Measured values taken from patent US7186408 (CAMBRIDGE UNIVERSITY TECHNICAL SERVICES, dated 2007).

Key:
[1] = target: T1, Recombinant mouse CD30-Fc (R&D Systems) (mouse, UniProt Q60846 19-281); assay: Scatchard analysis (LIGAND), 2 ng mouse CD30 on protein A FlashPlate with increasing mouse 125I-CD30L
T1 construct: also called moCD30-Fc; not shown: Fc portion of the bought fusion protein
T1 sequence: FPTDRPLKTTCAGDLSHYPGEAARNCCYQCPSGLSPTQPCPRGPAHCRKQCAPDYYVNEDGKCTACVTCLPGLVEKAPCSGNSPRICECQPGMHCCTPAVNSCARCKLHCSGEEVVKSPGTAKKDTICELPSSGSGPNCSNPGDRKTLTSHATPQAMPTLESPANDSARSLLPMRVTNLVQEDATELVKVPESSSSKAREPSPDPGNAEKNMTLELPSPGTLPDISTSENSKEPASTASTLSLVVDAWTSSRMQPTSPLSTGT

[2] = target: vCD30-Fc (EV Hampstead vCD30 fused to the Fc fragment of human IgG1, baculovirus AcCD30-Fc, purified from Hi5 … (ectromelia virus, strain Hampstead; …)
Human CD30 on K562 cells = target: T2, Human CD30 on K562 cells (human, UniProt P28908 19-595); assay: flow cytometry on K562 cells
T2 construct: also called cell surface CD30; cellular receptors
T2 sequence: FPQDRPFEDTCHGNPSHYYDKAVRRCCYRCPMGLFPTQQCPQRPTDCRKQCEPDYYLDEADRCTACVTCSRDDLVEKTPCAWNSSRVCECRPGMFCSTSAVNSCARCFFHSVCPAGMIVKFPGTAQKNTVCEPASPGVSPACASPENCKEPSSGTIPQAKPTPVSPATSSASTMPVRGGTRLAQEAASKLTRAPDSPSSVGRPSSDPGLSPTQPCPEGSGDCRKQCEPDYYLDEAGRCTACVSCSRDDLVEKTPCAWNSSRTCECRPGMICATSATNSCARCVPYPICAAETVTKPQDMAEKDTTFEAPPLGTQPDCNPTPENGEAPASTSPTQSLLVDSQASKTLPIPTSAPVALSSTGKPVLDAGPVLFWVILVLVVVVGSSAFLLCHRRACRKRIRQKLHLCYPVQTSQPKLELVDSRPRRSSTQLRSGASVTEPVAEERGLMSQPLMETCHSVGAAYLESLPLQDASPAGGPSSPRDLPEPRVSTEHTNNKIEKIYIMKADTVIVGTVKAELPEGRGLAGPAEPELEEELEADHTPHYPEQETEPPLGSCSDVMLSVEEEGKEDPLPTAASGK

B1: Recombinant mouse CD30L (soluble, 6x histidine-tagged, R&D Systems) (ligand, UniProt P32972 68-239, looked up)
chain: QKKDSTPNTTEKAPLKGGNCSEDLFCTLKSTPSKKSWAYLQVSKHLNNTKLSWNEDGTIHGLIYQDGNLIVQFPGLYFIVCQLQFLVQCSNHSVDLTLQLLINSKIKKQTLVTVCESGVQSKNIYQNLSQFLLHYLQVNSTISVRVDNFQYVDTNTFPLDNVLSVFLYSSSD
notes: also called 125I-CD30L; mouse 125I-CD30L
Q: For B1, which Kd [1] is on record?
A: The Kd was 1 nM.

Q: And the Kd [2]?
A: Its Kd is 1 nM.

Q: Does B1 bind (Human CD30 on K562 cells)?
A: Result: binds
